Consider two compounds from US9403875B2, “Cage-like bifunctional chelators, copper-64 radiopharmaceuticals and PET imaging using the same” (UNIVERSITY OF SOUTHERN CALIFORNIA, priority 2009, dated 2016).

The test system of series [1] is U87 MG human glioblastoma cell line (integrin αvβ3-positive). The experiment in a line: Cell uptake study in U87 MG cells. In kind it is cell-based. The following applies: blocking with excess cold cyclic RGD. The procedure: U87 MG human glioblastoma cell line (integrin αvβ3-positive) was obtained from the American Type Culture Collection (ATCC, Manassas, Va.) and maintained under standard conditions according to ATCC as following: The U87 MG glioma cells were grown in Gibco's Dulbecco's medium supplemented with 10% fetal bovine serum (FBS), 100 IU/mL penicillin, and 100 μg/mL streptomycin (Invitrogen Co, Carlsbad, Calif.), at 37° C. in humidified atmosphere containing 5% CO2. The U87 MG glioma cells were grown in culture until sufficient cells were available.
The cell uptake study was performed as described in the literature with some modifications. […] The tumor cells were then washed three times with chilled PBS and harvested by 0.1 N NaOH solution containing 0.5% sodium dodecyl sulfate (SDS). The cell suspensions were collected and measured in the gamma counter.

The nature of series [2]: MicroPET imaging of U87 MG tumor-bearing nude mice. Conditions: athymic nude, mouse, in vivo, iv, 11.1 MBq, total radioactivity. In kind it is in vivo, athymic nude mice. Here is the method:
(§1) Athymic nude mice (about 10-20 weeks old, with a body weight of 25-35 g) were obtained from Harlan (Charles River, Mass.). All animal experiments were performed according to a protocol approved by University of Southern California Institutional Animal Care and Use Committee. The U87 MG human glioma xenograft model was generated by subcutaneous injection of 5×10^6 U87 MG human glioma cells into the front flank of athymic nude mice. The tumors were allowed to grow 3-5 weeks until 200-500 mm^3 in volume. Tumor growth was followed by caliper measurements of the perpendicular dimensions.
(§2) MicroPET scans and imaging analysis were performed using a rodent scanner (microPET R4; Siemens Medical Solutions) as previously reported (26). Li, Z., Cai, W., Cao, Q., Chen, K., Wu, Z., He, L., and Chen, X. (2007) ^64Cu-labeled tetrameric and octameric RGD peptides for small-animal PET of tumor αvβ3 integrin expression. J Nucl Med 48, 1162-71. […] Ten minute static scans were acquired at 1, 2, 4, and 20 h post injection. The images were reconstructed by a 2-dimensional ordered-subsets expectation maximum (OSEM) algorithm. For each microPET scan, regions of interest were drawn over the tumor, normal tissue, and major organs on the decay-corrected whole-body coronal images. The radioactivity concentration (accumulation) within the tumor, muscle, liver, and kidneys were obtained from the mean value within the multiple regions of interest and then converted to % ID/g.

For series [3], the system named is U87 MG human glioma xenograft tumors. Description: MicroPET imaging of U87 MG tumor-bearing nude mice. In kind it is in vivo, athymic nude mice. Conditions: for uptake in U87 MG tumors: microPET. The procedure: as §1, §2
The nature of series [4]: Biodistribution by direct tissue sampling in U87 MG tumor bearing nude mice. The following applies: athymic nude, mouse, in vivo, 0.37 MBq, total radioactivity. Here is the method:
All mice were sacrificed and dissected at 20 h after the injection of the tracers. Blood, U87 MG tumor, major organs, and tissues were collected and weighed wet. The radioactivity in the tissues was measured using the gamma counter. The results were presented as percentage injected dose per gram of tissue (% ID/g). For each mouse, the radioactivity of the tissue samples was calibrated against a known aliquot of the injected activity. Mean uptake (% ID/g) for each group of animals was calculated with standard deviations.
To validate the accuracy of small animal PET quantification, we also performed a biodistribution experiment by using the direct tissue sampling technique. The data shown as the percentage administered activity (injected dose) per gram of tissue (% ID/g) in FIG. 19A. Both ^64Cu-AmBaSar-RGD and ^64Cu-DOTA-RGD mainly accumulated in kidneys, liver, stomach, intestine, and tumor. […] This difference was consistent with the excretion pattern from the microPET imaging results.

The nature of series [5]: Lipophilicity (octanol/water partition coefficient) of 64Cu-AmBaSar and 64Cu-DOTA. In kind it is physicochemical. The following applies: 1-octanol/PBS, pH 7.4. Here is the method:
Information about the lipophilicity of the ^64Cu-AmBaSar and ^64Cu-DOTA was obtained by measuring their partitioning in a 1-octanol/water system. Counts in samples were used to determine partition coefficients (log P) values, calculated using a known formula. The log P values were measured at pH 7.4 in PBS. The log P value of ^64Cu-AmBaSar is −2.6, and the corresponding value of ^64Cu-DOTA is −2.3. Both ^64Cu-AmBaSar and ^64Cu-DOTA are hydrophilic.
The partition coefficient value was expressed as log P. Log P of ^64Cu-AmBaSar or ^64Cu-DOTA was determined by measuring the distribution of radioactivity in 1-octanol and PBS. A 5 μL sample of ^64Cu-AmBaSar or ^64Cu-DOTA in PBS was added to a vial containing 1 mL each of 1-octanol and PBS. After vortexing for 5 min, the vial was centrifuged for 5 min to ensure complete separation of layers. Then, 5 μL of each layer was pipetted into other test tubes and radioactivity was measured using a gamma counter (Packard). The measurement was repeated three times.

The nature of series [6]: MicroPET imaging of radiolabeled BFCs in Balb/c mice. Conditions: between 30 min and 2 hours, micro-PET region of interest quantification. The class given is in vivo. The procedure:
MicroPET imaging and biodistribution studies were performed with the non-targeted ^64Cu-AmBaSar and ^64Cu-DOTA complexes to allow a comparison of their base-line organ uptake and clearance properties. After 30 min, the radioactivity quickly cleared from muscle and blood, and mainly localized in the bladder and kidneys. Regarding ^64Cu-DOTA, the radioactivity mainly localized in the bladder, kidneys, and liver.
MicroPET imaging and biodistribution of the radiolabeled BFCs were performed on Balb/c mice to evaluate their in vivo properties. Animals (Balb/c, n=2) were injected with 0.3 mCi ^64Cu-AmBaSar or ^64Cu-DOTA through the tail vein. PET imaging (10-min static scans) was performed using a microPET R4 scanner (Concorde Microsystems, Inc, Knoxville, Tenn.), with 120 transaxial planes and spatial resolution of 1.2 mm, at 30 min and 2 h postinjection. The microPET data were reconstructed using the ordered subsets expectation maximization (OSEM) algorithm using the microPET Manager Software (CTI Concorde Microsystems, Inc, Knoxville, Tenn.). Images were then analyzed using the Acquisition Sinogram Image Processing (ASIPro) software (CTI Concorde Microsystems, Inc, Knoxville, Tenn.).

Series [7] can be described thus: Biodistribution of radiolabeled BFCs in Balb/c mice. The class given is in vivo. Here is the method:
The biodistribution of ^64Cu-AmBaSar and ^64Cu-DOTA were assessed in Balb/c mice. Each animal was sacrificed at the time interval 2 h and the organs dissected. The values of percent injected dose/gram (ID/g %) in different organs were compared and illustrated in FIG. 13. The ^64Cu-AmBaSar cleared rapidly from the blood and predominantly through the kidneys. After 2 h, the kidney and liver uptake reached 1.09±0.27, 0.14±0.01% ID/g, respectively, which is consistent with the excretion pattern from the microPET imaging results. The ^64Cu-DOTA cleared through the kidney and liver, with uptake reached 1.28±0.41, 1.25±0.09, respectively, by 2 h.
For biodistribution studies, one group of mice (Balb/c, n=3) was injected intravenously with the radiotracer ^64Cu-AmBaSar (10 μCi, 100 μL). Another group of mice was injected similarly with ^64Cu-DOTA (10 μCi, 100 μL). Activity injected into each mouse was measured in a dose calibrator (Capintec). After inhalation anesthesia, animals were sacrificed at 2 h postinjection. Tissues and organs of interest were separated and weighed. Radioactivity in each organ was measured using a gamma counter, and radioactivity uptake was expressed as % ID/g. Mean uptake (% ID/g) for each group of animals was calculated with standard deviations.

The mark [8] stands for this setting: 2 h postinjection, Balb/c mice, i.v.

Molecules are shown by their SMILES.

The term tissue uptake denotes the share of the injected amount in each gram of the tissue. For `N=C(N)NCCC[C@@H]1NC(=O)[C@H](CCCCNC(=O)CN2CCN(CC(=O)O)CCN(CC(=O)O)CCN(CC(=O)O)CC2)NC(=O)[C@@H](Cc2ccc(O)cc2)NC(=O)[C@H](CC(=O)O)NC(=O)CNC1=O` [^64Cu-DOTA-RGD, metal not drawn], the “binding to U87 MG cells in presence of excess cold cyclic RGD peptide” value in series [1] is on record as “efficiently blocked”. In addition, the tissue uptake at 1 h in series [2] (liver uptake) is 2.28 ± 1.08 %ID/g; in series [2] (renal uptake), 1.52 ± 0.46 %ID/g. For the same compound, the tissue uptake at 2 h in series [2] (liver uptake) came out at 2.31 ± 1.34 %ID/g; in series [2] (renal uptake), 1.33 ± 0.23 %ID/g. Moreover, the values for the tissue uptake at 4 h in series [2] (liver uptake) and in series [2] (renal uptake) were 2.15 ± 0.9 %ID/g and 1.55 ± 0.61 %ID/g, respectively. In addition, the tissue uptake at 20 h in series [2] (liver uptake) stood at 2.52 ± 1.43 %ID/g; in series [2] (renal uptake), 1.58 ± 0.13 %ID/g; in series [4] (kidneys uptake) it was 0.98 ± 0.4 %ID/g; in series [4] (liver uptake), 2.16 ± 0.85 %ID/g. Also, the “uptake in U87 MG tumors” value was found to be 2.03±0.10 % ID/g in series [3] (1 h p.i.), 1.97±0.05 % ID/g in series [3] (2 h p.i.), 1.88±0.29 % ID/g in series [3] (4 h p.i.) and 0.88±0.07 % ID/g in series [3] (20 h p.i.). The “liver uptake compared with 64Cu-AmBaSar-RGD” value in series [3] (mouse, in vivo) is on record as 2-3 times.
One may read the log P as the decadic logarithm of the partition coefficient of the neutral form, usually between octanol and water. Higher therefore signals higher lipophilicity. Consider `O=C([O-])CN1CCN(CC(=O)[O-])CCN(CC(=O)O)CCN(CC(=O)O)CC1.[64Cu+2]` [^64Cu-DOTA], for which, in series [5], the “log P” value is −2.3. Further, in series [6], the “decrease of renal activity” value worked out at 66%. Besides, the “liver uptake relative to 64Cu-AmBaSar” value in series [7] (2 h post injection) is “eight times higher”. Also, in series [7] (setting [8]), the kidney uptake is listed as 1.28±0.41 % ID/g and the liver uptake is 1.25±0.09 % ID/g.
